{
  "source": "paper PMC2887722",
  "about": "(Molecular cell, 2010)",
  "binders": {"B1": {"name": "hRpn13 (253-407) (domain or fragment, human, UniProt Q16186 253-407, looked up)", "chain": "STAASPTQPIQLSDLQSILATMNVPAGPAGGQQVDLASVLTPEIMAPILANADVQERLLPYLPSGESLPQTADEIQNTLTSPQFQQALGMFSAALASGQLGPLMCQFGLPAEAVEAANKGDVEAFAKAMQNNAKPEQKEGDTKDKKDEEEDMSLD"}, "B2": {"name": "GST-tagged hRpn13 (253-407) wild-type (domain or fragment, human, UniProt Q16186 253-407, looked up)", "chain": "B1 chain"}, "B3": {"name": "GST-tagged hRpn13 (253-407) with alanine substitutions of Val286, Asp287, Glu295 and Ile296 (domain or fragment, human, UniProt Q16186 253-407, looked up)", "chain": "B1 chain with V34A, D35A, E43A, I44A"}, "B4": {"name": "GST-tagged hRpn2 (797-953) (domain or fragment, human, UniProt Q99460 797-953, looked up)", "chain": "MPKVQYKSNCKPSTFAYPAPLEVPKEKEKEKVSTAVLSITAKAKKKEKEKEKKEEEKMEVDEAEKKEEKEKKKEPEPNFQLLDNPARVMPAQLKVLTMPETCRYQPFKPLSIGGIIILKDTSEDIEELVEPVAAHGPKIEEEEQEPEPPEPFEYIDD"}, "B5": {"name": "hRpn13 (1-150) (domain or fragment, human, UniProt Q16186 1-150, looked up)", "chain": "MTTSGALFPSLVPGSRGASNKYLVEFRAGKMSLKGTTVTPDKRKGLVYIQQTDDSLIHFCWKDRTSGNVEDDLIIFPDDCEFKRVPQCPSGRVYVLKFKAGSKRLFFWMQEPKTDQDEEHCRKVNEYLNNPPMPGALGASGSSGHELSAL"}, "B6": {"name": "full length human Rpn13 (hRpn13) (natural protein, UniProt Q16186 1-407, looked up)", "chain": "MTTSGALFPSLVPGSRGASNKYLVEFRAGKMSLKGTTVTPDKRKGLVYIQQTDDSLIHFCWKDRTSGNVEDDLIIFPDDCEFKRVPQCPSGRVYVLKFKAGSKRLFFWMQEPKTDQDEEHCRKVNEYLNNPPMPGALGASGSSGHELSALGGEGGLQSLLGNMSHSQLMQLIGPAGLGGLGGLGALTGPGLASLLGSSGPPGSSSSSSSRSQSAAVTPSSTTSSTRATPAPSAPAAASATSPSPAPSSGNGASTAASPTQPIQLSDLQSILATMNVPAGPAGGQQVDLASVLTPEIMAPILANADVQERLLPYLPSGESLPQTADEIQNTLTSPQFQQALGMFSAALASGQLGPLMCQFGLPAEAVEAANKGDVEAFAKAMQNNAKPEQKEGDTKDKKDEEEDMSLD"}},
  "key": {"[1]": {"target": "T1, His-tagged Uch37 (UniProt Q9Y5K5 1-329)", "T1 sequence (looked up)": "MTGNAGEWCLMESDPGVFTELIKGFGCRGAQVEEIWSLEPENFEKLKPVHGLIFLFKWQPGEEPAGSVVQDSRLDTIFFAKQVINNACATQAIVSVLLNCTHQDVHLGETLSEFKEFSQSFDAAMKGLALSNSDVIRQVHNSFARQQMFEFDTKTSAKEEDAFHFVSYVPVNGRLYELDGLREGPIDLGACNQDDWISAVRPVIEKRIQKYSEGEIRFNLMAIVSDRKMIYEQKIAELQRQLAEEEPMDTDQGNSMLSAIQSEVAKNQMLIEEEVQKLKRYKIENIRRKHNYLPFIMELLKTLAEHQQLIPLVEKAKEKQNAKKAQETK", "test": "NMR intermolecular NOEs"}, "[2]": {"target": "T1, His-tagged Uch37", "test": "pull-down"}, "[3]": {"target": "B6", "test": "pull-down"}, "[4]": {"target": "T2, hRpn2 (797-953) (human, UniProt Q99460 797-953)", "T2 sequence (looked up)": "B4 chain", "test": "NMR titration"}, "[5]": {"target": "ubiquitin (UniProt P0CG48 1-76)", "test": "other fluorescence titration"}},
  "note": "Residue numbers refer to the chain shown, from its start.",
  "data": [
    {"binder": "B1", "values": [
      {"measurement": "binding result", "setting": "[1]", "value": "binds"}
    ]},
    {"binder": "B2", "values": [
      {"measurement": "binding result", "setting": "[2]", "value": "binds"}
    ]},
    {"binder": "B3", "values": [
      {"measurement": "binding result", "setting": "[2]", "value": "binds"}
    ]},
    {"binder": "B4", "values": [
      {"measurement": "binding result", "setting": "[3]", "value": "binds"}
    ]},
    {"binder": "B5", "values": [
      {"measurement": "binding result", "setting": "[4]", "value": "binds"}
    ]},
    {"binder": "B6", "values": [
      {"measurement": "Kd", "setting": "[5]", "value": "8 ± 0.5", "unit": "µM"}
    ]}
  ]
}
